Bridge positions count the residues as written; N and C are the ends. Square brackets hold non-standard residues; d marks the D form. 2Nal = N[C@@H](Cc1ccc2ccccc2c1)C(=O)O; d2Nal = N[C@H](Cc1ccc2ccccc2c1)C(=O)O; Bta = N[C@@H](Cc1csc2ccccc12)C(=O)O; Aib = CC(C)(N)C(=O)O; βAla = NCCC(=O)O
B1: Ac-Nle-c(Cys-D-Ala-His-D-Phe-Arg-Trp-Cys)-(Doc)2-Tyr-Gly-Arg-Lys-Lys-Arg-Arg-Gln-Arg-Arg-Arg-NH2 (peptide)
peptide: XCAHFRWCXXYGRKKRRQRRR
modifications: N-terminal Ac; Nle at 1; D-Ala at 3; D-Phe at 5; Doc at 9 and 10; disulfide Cys2-Cys8; C-terminal NH2
B2: Ac-c(Cys-Glu-His-D-2-Nal-Arg-Bal-Ala-Cys)-Pro-Pro-Lys-Asp-β-Ala-Tyr-Aib-Arg-Lys-Lys-Arg-Arg-Gln-Arg-Arg-Arg-NH2 (peptide)
peptide: Ac-CEH[d2Nal]R[Bta]ACPPKD[βAla]Y[Aib]RKKRRQRRR-NH2
modifications: disulfide 1-8
SMILES: CC(=O)N[C@H]1CSSC[C@@H](C(=O)N2CCC[C@H]2C(=O)N2CCC[C@H]2C(=O)N[C@@H](CCCCN)C(=O)N[C@@H](CC(=O)O)C(=O)NCCC(=O)N[C@@H](Cc2ccc(O)cc2)C(=O)NC(C)(C)C(=O)N[C@@H](CCCNC(=N)N)C(=O)N[C@@H](CCCCN)C(=O)N[C@@H](CCCCN)C(=O)N[C@@H](CCCNC(=N)N)C(=O)N[C@@H](CCCNC(=N)N)C(=O)N[C@@H](CCC(N)=O)C(=O)N[C@@H](CCCNC(=N)N)C(=O)N[C@@H](CCCNC(=N)N)C(=O)N[C@@H](CCCNC(=N)N)C(N)=O)NC(=O)[C@H](C)NC(=O)[C@H](Cc2csc3ccccc23)NC(=O)[C@H](CCCNC(=N)N)NC(=O)[C@@H](Cc2ccc3ccccc3c2)NC(=O)[C@H](Cc2c[nH]cn2)NC(=O)[C@H](CCC(=O)O)NC1=O
B3: Ac-c(Cys-Glu-His-D-2-Nal-Arg-Bal-Ala-Cys)-Pro-Pro-Arg-Asp-β-[…]NH2 (peptide)
peptide: Ac-CEH[d2Nal]R[Bta]ACPPRD[βAla]RRRRRRQRRR-NH2
modifications: disulfide 1-8
SMILES: CC(=O)N[C@H]1CSSC[C@@H](C(=O)N2CCC[C@H]2C(=O)N2CCC[C@H]2C(=O)N[C@@H](CCCNC(=N)N)C(=O)N[C@@H](CC(=O)O)C(=O)NCCC(=O)N[C@@H](CCCNC(=N)N)C(=O)N[C@@H](CCCNC(=N)N)C(=O)N[C@@H](CCCNC(=N)N)C(=O)N[C@@H](CCCNC(=N)N)C(=O)N[C@@H](CCCNC(=N)N)C(=O)N[C@@H](CCCNC(=N)N)C(=O)N[C@@H](CCC(N)=O)C(=O)N[C@@H](CCCNC(=N)N)C(=O)N[C@@H](CCCNC(=N)N)C(=O)N[C@@H](CCCNC(=N)N)C(N)=O)NC(=O)[C@H](C)NC(=O)[C@H](Cc2csc3ccccc23)NC(=O)[C@H](CCCNC(=N)N)NC(=O)[C@@H](Cc2ccc3ccccc3c2)NC(=O)[C@H](Cc2c[nH]cn2)NC(=O)[C@H](CCC(=O)O)NC1=O
B4: Ac-c(Cys-Glu-His-D-2-Nal-Arg-Bal-Ala-Cys)-Pro-Pro-Lys-Asp-β-[…]NH2 (peptide)
peptide: Ac-CEH[d2Nal]R[Bta]ACPPKD[βAla]GRKRRRQRRR-NH2
modifications: disulfide 1-8
SMILES: CC(=O)N[C@H]1CSSC[C@@H](C(=O)N2CCC[C@H]2C(=O)N2CCC[C@H]2C(=O)N[C@@H](CCCCN)C(=O)N[C@@H](CC(=O)O)C(=O)NCCC(=O)NCC(=O)N[C@@H](CCCNC(=N)N)C(=O)N[C@@H](CCCCN)C(=O)N[C@@H](CCCNC(=N)N)C(=O)N[C@@H](CCCNC(=N)N)C(=O)N[C@@H](CCCNC(=N)N)C(=O)N[C@@H](CCC(N)=O)C(=O)N[C@@H](CCCNC(=N)N)C(=O)N[C@@H](CCCNC(=N)N)C(=O)N[C@@H](CCCNC(=N)N)C(N)=O)NC(=O)[C@H](C)NC(=O)[C@H](Cc2csc3ccccc23)NC(=O)[C@H](CCCNC(=N)N)NC(=O)[C@@H](Cc2ccc3ccccc3c2)NC(=O)[C@H](Cc2c[nH]cn2)NC(=O)[C@H](CCC(=O)O)NC1=O
B5: Ac-c(Cys-Glu-His-D-2-Nal-Arg-2-Nal-Ala-Cys)-Pro-Pro-Lys-Asp-β-[…]NH2 (peptide)
peptide: Ac-CEH[d2Nal]R[2Nal]ACPPKD[βAla]GRRKRRQRRR-NH2
modifications: disulfide 1-8
SMILES: CC(=O)N[C@H]1CSSC[C@@H](C(=O)N2CCC[C@H]2C(=O)N2CCC[C@H]2C(=O)N[C@@H](CCCCN)C(=O)N[C@@H](CC(=O)O)C(=O)NCCC(=O)NCC(=O)N[C@@H](CCCNC(=N)N)C(=O)N[C@@H](CCCNC(=N)N)C(=O)N[C@@H](CCCCN)C(=O)N[C@@H](CCCNC(=N)N)C(=O)N[C@@H](CCCNC(=N)N)C(=O)N[C@@H](CCC(N)=O)C(=O)N[C@@H](CCCNC(=N)N)C(=O)N[C@@H](CCCNC(=N)N)C(=O)N[C@@H](CCCNC(=N)N)C(N)=O)NC(=O)[C@H](C)NC(=O)[C@H](Cc2ccc3ccccc3c2)NC(=O)[C@H](CCCNC(=N)N)NC(=O)[C@@H](Cc2ccc3ccccc3c2)NC(=O)[C@H](Cc2c[nH]cn2)NC(=O)[C@H](CCC(=O)O)NC1=O
B6: Ac-c(Cys-Glu-His-D-2-Nal-Arg-Bal-Ala-Cys)-Pro-Pro-Lys-Asp-β-[…]NH2 (peptide)
peptide: Ac-CEH[d2Nal]R[Bta]ACPPKD[βAla]GRRKRRQRRR-NH2
modifications: disulfide 1-8
SMILES: CC(=O)N[C@H]1CSSC[C@@H](C(=O)N2CCC[C@H]2C(=O)N2CCC[C@H]2C(=O)N[C@@H](CCCCN)C(=O)N[C@@H](CC(=O)O)C(=O)NCCC(=O)NCC(=O)N[C@@H](CCCNC(=N)N)C(=O)N[C@@H](CCCNC(=N)N)C(=O)N[C@@H](CCCCN)C(=O)N[C@@H](CCCNC(=N)N)C(=O)N[C@@H](CCCNC(=N)N)C(=O)N[C@@H](CCC(N)=O)C(=O)N[C@@H](CCCNC(=N)N)C(=O)N[C@@H](CCCNC(=N)N)C(=O)N[C@@H](CCCNC(=N)N)C(N)=O)NC(=O)[C@H](C)NC(=O)[C@H](Cc2csc3ccccc23)NC(=O)[C@H](CCCNC(=N)N)NC(=O)[C@@H](Cc2ccc3ccccc3c2)NC(=O)[C@H](Cc2c[nH]cn2)NC(=O)[C@H](CCC(=O)O)NC1=O

biological target: T1, human melanocortin receptor subtype 1 (hMC1-R) (human, UniProt Q01726 1-317); test: [125I]-NDP-α-MSH competition, membranes
T1 construct: whole, on cells; membranes of CHO-K1 cells
T1 sequence (Q01726 whole entry): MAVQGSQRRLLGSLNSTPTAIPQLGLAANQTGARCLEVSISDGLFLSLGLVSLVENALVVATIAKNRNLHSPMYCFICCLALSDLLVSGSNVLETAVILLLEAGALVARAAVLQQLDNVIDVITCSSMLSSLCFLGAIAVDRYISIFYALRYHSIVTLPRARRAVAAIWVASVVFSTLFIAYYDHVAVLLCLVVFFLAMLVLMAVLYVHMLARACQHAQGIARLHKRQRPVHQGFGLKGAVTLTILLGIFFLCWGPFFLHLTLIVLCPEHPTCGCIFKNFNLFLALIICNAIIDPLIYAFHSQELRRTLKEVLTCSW

Going from B1 to B2, the Ki rises from 0.211 nM to 7.84 nM (37-fold).

Going from Ac-CEH[d2Nal]R[Bta]ACPPKD[βAla]GRRRRRQRRR-NH2 (disulfide 1-8) to B3, the Ki falls from 12.8 nM to 7.32 nM (1.7-fold).

Going from B4 to B5, the Ki falls from 4.29 nM to 2.71 nM (1.6-fold). The second binds more tightly here.

B6 showed a Ki of 2.5 nM.

biological target: T2, human melanocortin receptor subtype 4 (hMC4-R) (human, UniProt P32245 1-332); test: [125I]-NDP-α-MSH competition, membranes
T2 construct: whole, on cells; membranes of CHO-K1 cells
T2 sequence (P32245 whole entry): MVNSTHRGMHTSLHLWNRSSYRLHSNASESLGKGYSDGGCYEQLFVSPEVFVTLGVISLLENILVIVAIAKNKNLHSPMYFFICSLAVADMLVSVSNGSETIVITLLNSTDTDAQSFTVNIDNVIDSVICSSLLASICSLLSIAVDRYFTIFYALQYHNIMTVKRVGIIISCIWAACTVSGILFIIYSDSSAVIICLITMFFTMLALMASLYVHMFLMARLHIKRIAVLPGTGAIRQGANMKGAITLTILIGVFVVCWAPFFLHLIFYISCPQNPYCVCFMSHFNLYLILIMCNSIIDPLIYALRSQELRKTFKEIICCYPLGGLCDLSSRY

B1 and B2 are within 1.5-fold of each other in Ki: 0.635 nM for the first, 0.783 nM for the second.

Ac-CEH[d2Nal]R[Bta]ACPPKD[βAla]GRRRRRQRRR-NH2 (disulfide 1-8) and B3 are within 1.5-fold of each other in Ki: 0.95 nM for the first, 0.659 nM for the second.

Compared with B4, B5 is 2.1-fold lower in Ki: 0.425 nM for the first, 0.202 nM for the second.

B6 showed a Ki of 0.573 nM.

biological target: T3, human melanocortin receptor subtype 3 (hMC3-R) (human, UniProt P41968 1-323); test: [125I]-NDP-α-MSH competition, membranes
T3 construct: whole, on cells; membranes of CHO-K1 cells
T3 sequence (P41968 whole entry): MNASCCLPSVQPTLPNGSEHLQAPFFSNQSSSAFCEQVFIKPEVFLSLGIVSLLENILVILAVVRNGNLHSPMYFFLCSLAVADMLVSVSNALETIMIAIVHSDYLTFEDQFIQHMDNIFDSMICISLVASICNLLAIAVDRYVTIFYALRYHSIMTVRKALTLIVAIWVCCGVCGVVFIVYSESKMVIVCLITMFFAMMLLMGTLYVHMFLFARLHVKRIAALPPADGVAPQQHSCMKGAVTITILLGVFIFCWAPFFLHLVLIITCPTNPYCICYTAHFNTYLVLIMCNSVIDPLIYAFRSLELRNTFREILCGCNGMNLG

Going from B1 to B2, the Ki rises from 0.665 nM to 10.2 nM (15-fold). The first binds more tightly here.

Ac-CEH[d2Nal]R[Bta]ACPPKD[βAla]GRRRRRQRRR-NH2 (disulfide 1-8) and B3 are within 1.5-fold of each other in Ki: 15.9 nM for the first, 11 nM for the second.

Going from B4 to B5, the Ki falls from 2.15 nM to 0.732 nM (2.9-fold).

Work on B6 yielded a Ki of 1.59 nM.

biological target: T4, human melanocortin receptor subtype 5 (hMC5-R) (human, UniProt P33032 1-325); test: [125I]-NDP-α-MSH competition, membranes
T4 construct: whole, on cells; membranes of CHO-K1 cells
T4 sequence (P33032 whole entry): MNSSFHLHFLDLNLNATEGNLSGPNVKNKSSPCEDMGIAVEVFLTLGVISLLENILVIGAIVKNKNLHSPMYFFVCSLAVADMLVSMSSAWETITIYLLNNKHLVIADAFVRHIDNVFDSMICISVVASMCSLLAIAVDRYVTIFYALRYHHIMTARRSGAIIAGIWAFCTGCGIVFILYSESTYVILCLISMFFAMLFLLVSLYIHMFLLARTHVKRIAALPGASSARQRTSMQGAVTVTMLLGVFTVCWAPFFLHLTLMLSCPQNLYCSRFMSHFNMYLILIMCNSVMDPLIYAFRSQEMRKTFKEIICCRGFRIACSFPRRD

B1 and B2 are within 1.5-fold of each other in Ki: 118 nM for the first, 91.8 nM for the second.

Going from Ac-CEH[d2Nal]R[Bta]ACPPKD[βAla]GRRRRRQRRR-NH2 (disulfide 1-8) to B3, the Ki falls from 165 nM to 78 nM (2.1-fold).

Compared with B4, B5 is 2.8-fold lower in Ki: 15.5 nM for the first, 5.53 nM for the second.

B6 gave a Ki of 15.7 nM.
